Source: patent publication US8889631B2, “Disruptors of early/recycling endosomes” (The University of Kansas, priority 2008, dated 2014)
Square brackets hold non-standard residues; d marks the D form. Peptide text beside a SMILES is read from it. * marks the point of attachment. Pentanoyl(5-NH-cholesteryl) = CC(C)CCC[C@@H](C)[C@H]1CC[C@H]2[C@@H]3CC=C4C[C@@H](NCCCCC(=O)*)CC[C@]4(C)[C@H]3CC[C@]12C; Ahx = NCCCCCC(=O)O

Experiments:
[1] = test system: CHO cells; experiment: Cytotoxicity assay (CellTiter-Glo), CHO cells; format: cell-based, Chinese hamster; settings: 8 μM, 48 h at 37° C.
Method: Trypsinized CHO cells (2×10^3) in media (100 μL) were loaded on a 96-well plate. After incubation for 36 h, the media was replaced with fresh media (100 μL) containing increasing concentrations of Compound 1 in DMSO (final [DMSO]=1%). After 48 h of incubation, the cells in each well were washed with PBS (2×100 μL) and detached by treatment with a solution of trypsin (50 μL, 5 min). The cell suspension (10 μL) was transferred to an opaque 96-well plate containing PBS (170 μL per well) and treated with CellTiter-Glo reagent (20 μL, Promega) according to the Promega protocol provided with the reagent. After incubation at ambient temperature (22° C.) for 10 min, the luminescence of the samples was measured with a Packard Fusion microplate reader.

[2] = test system: Jurkat lymphocytes; experiment: Toxicity of colchicine-cholesterylamine Compound 30 with or without Compound 1, DIC micrographs; format: cell-based, human; settings: 2 μM; 48 h
Method: FIGS. 11B-11E show DIC micrographs of Jurkat lymphocytes treated for 48 h with DMSO (FIG. 11B), Compound 1 (FIG. 11C), Compound 30 (FIG. 11D, and Compounds 1 and 30 (FIG. 11E).
The delivery system was studied with the anticancer agent colchicine being linked to the N-alkyl-3β-cholesterylamine via a disulfide, which compound is Compound 30 as shown in FIG. 11A. The delivery system utilized Compound 1 to release the anticancer agent colchicine from Compound 30. Colchicine was linked to an N-alkyl-3β-cholesterylamine via a disulfide linker to present a compound that is non-toxic to Jurkat lymphocytes at 200 nM. The cholesterylamine-PC4 peptide (Compound 1) is similarly non-toxic at 2 μM. However, the combination of these two compounds (Compound 1+Compound 30) is lethal to lymphocytes because Compound 1 enables release of the toxic colchicine derivative (FIGS. 11B-11E). […] It is thought that tumor-specific proteases capable of cleaving a peptide bond linking N-alkyl-3β-cholesterylamines to doxorubicin or other cancer agent will similarly enable the specific delivery of drugs to cognate cancer cells. Also, a cell type specific protease can be used for controlling delivery of the agent into the cytosol of those cell types.

[3] = test system: Jurkat lymphocytes; experiment: Cytotoxicity assay (CellTiter-Glo), Jurkat cells; format: cell-based, human; settings: 2 μM, 48 h at 37° C.
Method: Jurkat lymphocytes (7×10^4) in media (100 μL) were loaded on a 96-well plate. To these cells were added increasing concentrations of Compound 1 in DMSO (final [DMSO]=1%). After incubation for 48 h, cells from each well (10 μL) were transferred to an opaque 96-well plate containing PBS (170 μL per well) and treated with CellTiter-Glo reagent (20 μL, Promega) according to the Promega protocol provided with the reagent. After incubation at ambient temperature (22° C.) for 10 min, the luminescence of the samples was measured with a Packard Fusion microplate reader.

CC(C)CCC[C@@H](C)[C@H]1CC[C@H]2[C@@H]3CC=C4C[C@@H](NCCCCC(=O)N[C@@H](CCC(=O)O)C(=O)N[C@@H](CCC(=O)O)C(=O)NCCCCCC(=O)NCCCCCC(=O)N[C@@H](CO)C(=O)N[C@@H](CO)C(=O)N[C@@H](C)C(=O)N[C@@H](Cc5c[nH]c6ccccc56)C(=O)N[C@@H](Cc5c[nH]c6ccccc56)C(=O)N[C@@H](CO)C(=O)N[C@@H](Cc5ccc(O)cc5)C(=O)N[C@@H](Cc5c[nH]c6ccccc56)C(=O)N5CCC[C@H]5C(=O)N5CCC[C@H]5C(=O)N[C@H](C(=O)N[C@@H](C)C(N)=O)C(C)C)CC[C@]4(C)[C@H]3CC[C@]12C [Compound 1, N-[6-({6-[(N-{5-(3β-Cholest-5-en-3-ylammonio)pentanoyl}-5-oxidanidyl-5-oxidanylidene-L-norvalyl-5-oxidanidyl-5-oxidanylidene-L-norvalyl)amino]hexanoyl}amino)hexanoyl]-L-seryl-L-seryl-L-alanyl-L-tryptophyl-L-tryptophyl-L-seryl-L-tyrosyl-L-tryptophyl-L-prolyl-L-prolyl-L-valyl-L-alaninamide] ({Pentanoyl(5-NH-cholesteryl)}-EE[Ahx][Ahx]SSAWWSYWPPVA-NH2)
non-toxic: toxicity (cellular viability) [1] | toxicity to Jurkat lymphocytes [2] | toxicity (cellular viability) [3]
